From PMC7553530

Target: recombinant human PD-L1 (rhPD-L1) ectodomain (human) (UniProt Q9NZQ7)
Assay: SPR

Sequence of UniProt Q9NZQ7 (Q9NZQ7 19-238): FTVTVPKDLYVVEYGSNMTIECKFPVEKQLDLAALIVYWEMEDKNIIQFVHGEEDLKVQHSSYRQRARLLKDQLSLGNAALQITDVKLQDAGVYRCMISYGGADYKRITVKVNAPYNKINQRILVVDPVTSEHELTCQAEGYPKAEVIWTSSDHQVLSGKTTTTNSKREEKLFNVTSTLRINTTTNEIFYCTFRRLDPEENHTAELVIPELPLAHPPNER

Substance | response (RU)
MVF-PD-1 (32–50) (from UniProt P69353 288-302) (peptide) | 11
MVF-PD-1 (45–64) (from UniProt P69353 288-302) (peptide) | 110
MVF-PD-1 (73–90) (from UniProt P69353 288-302) (peptide) | 110
MVF-PD-1 (92–110) (from UniProt P69353 288-302) (peptide) | 110
